Entries after “also recorded” stand apart in the source; their conditions may differ.
Assays:
[1] = molecular target: T1, VAPB-MSP(1–125) (Homo sapiens, UniProt O95292); experiment: NMR titration
[2] = test system: VAPB-MSP T46I mutant; details: ref [51]; cited from earlier work
[3] = molecular target: T1, VAPB-MSP(1–125); experiment: NMR competition of EphA4 LBD with D3B for VAPB-MSP(1-125); type: binding; parameters: His tag (N, cleaved yes); made in house; host or cells: Escherichia coli BL21 (DE3) Star; details: MSP saturated by D3B at 1:4 (MSP/D3B); EphA4 at 1:10 (MSP:EphA4)
Protocol: NMR titration and docking results all reveal that the D3B peptide is able to occupy the MSP surface regions which are also critical for binding to EphA4 receptor as we previously characterized. To confirm this, we first saturated the VAPB-MSP(1–125) by D3B at a molar ratio of 1∶4 (MSP/D3B). Subsequently the EphA4 ligand-binding domain (LBD) was gradually titrated into this sample.
NMR samples were prepared in 10 mM phosphate buffer in the presence of 10 mM DTT (pH 6.8). All NMR data were collected at 25°C on an 800-MHz Bruker Avance spectrometer equipped with a shielded cryoprobe as described before [70]–[73]. For HSQC characterization, samples were prepared at a protein concentration of 100 µM. […] NMR data were processed with NMRpipe and analyzed with NMRview.
For NMR HSQC characterization of the binding interactions between NS5A and VAPB fragments/domains, two-dimensional ^1H-^15N HSQC spectra of the ^15N-labeled proteins were acquired at a protein concentration of 50 µM in the absence or presence of the unlabeled binding partners at different molar ratios. […] The degree of perturbation was reflected by an integrated chemical shift difference (CSD) calculated by the formula ((Δ^1H)^2+(Δ^15N)^2/5)^1/2 [73]. […]

[4] = molecular target: T1, VAPB-MSP(1–125); parameters: His tag (N, cleaved yes); made in house; host or cells: Escherichia coli BL21 (DE3) Star; details: molar ratio 1:2; ref [51]; cited from earlier work
From the text: NMR titration and docking results all reveal that the D3B peptide is able to occupy the MSP surface regions which are also critical for binding to EphA4 receptor as we previously characterized. […] Subsequently the EphA4 ligand-binding domain (LBD) was gradually titrated into this sample.

[5] = molecular target: T2, VAPB-MSP(1–125) T46I mutant (Homo sapiens, UniProt O95292, T46I); experiment: NMR HSQC titration of 15N-VAPB-MSP(1-125) T46I mutant; type: binding
T2 construct: chemical shifts of VAPB-MSP(1–125) T46I mutant in the presence of unlabeled NS5A-D3C; His tag (N, cleaved yes); made in house; host or cells: Escherichia coli BL21 (DE3) Star
T2 sequence (O95292 1-125 T46I): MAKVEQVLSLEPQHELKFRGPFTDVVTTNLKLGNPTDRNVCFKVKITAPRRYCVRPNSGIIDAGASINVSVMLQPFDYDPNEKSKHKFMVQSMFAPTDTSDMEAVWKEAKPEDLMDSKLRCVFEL
Protocol: (§1) NMR samples were prepared in 10 mM phosphate buffer in the presence of 10 mM DTT (pH 6.8). All NMR data were collected at 25°C on an 800-MHz Bruker Avance spectrometer equipped with a shielded cryoprobe as described before [70]–[73]. For HSQC characterization, samples were prepared at a protein concentration of 100 µM. For sequential assignments of NS5A-D3, triple-resonance NMR experiments including HNCACB and CBCA(CO)NH were acquired on a double-labeled sample at a protein concentration of ∼300 µM while for sequential assignments of NS5A-D3A, three-dimensional heteronuclear NMR experiments including HSQC-TOCSY and HSQC-NOESY were acquired on a ^15N-labeled sample at a protein concentration of ∼500 µM. NMR data were processed with NMRpipe and analyzed with NMRview.
(§2) For NMR HSQC characterization of the binding interactions between NS5A and VAPB fragments/domains, two-dimensional ^1H-^15N HSQC spectra of the ^15N-labeled proteins were acquired at a protein concentration of 50 µM in the absence or presence of the unlabeled binding partners at different molar ratios. By superimposing the HSQC spectra at different molar ratios, the shifted or disappeared HSQC peaks could be identified and further assigned to the corresponding residues as we previously described, [67]–[70]. The degree of perturbation was reflected by an integrated chemical shift difference (CSD) calculated by the formula ((Δ^1H)^2+(Δ^15N)^2/5)^1/2 [73]. The CSD tracings were fitted by using the one binding site model to obtain residue-specific dissociation constants (Kd); which are summarized in Table 1.

[6] = molecular target: T1, VAPB-MSP(1–125); experiment: NMR HSQC titration of 15N-VAPB-MSP(1-125) with NS5A fragments, Kd fitting; type: binding; parameters: His tag (N, cleaved yes); made in house; host or cells: Escherichia coli BL21 (DE3) Star
Protocol: as §1, §2

T1 sequence (O95292 1-125): as the sequence (O95292 1-125 T46I) above, with I46T counted along it

Molecule | Kd [1] | residue-specific Kd (Asp116) [1] | residue-specific Kd (Gln6) [1] | residue-specific Kd (Gln91) [1] | residue-specific Kd (Leu119) [1] | residue-specific Kd (Met89) [1] | residue-specific Kd (Val90) [1] | residue-specific Kd (Val122) [1] | Effect of T46I mutation on binding to EphA4 [2] | HSQC perturbation of MSP by EphA4 LBD with pre-existence of D3B [3] | HSQC perturbation of MSP by EphA4 LBD without D3B [4] | Interaction (Yes/No) with VAPB-MSP(1-125) T46I ([5]; 15N-VAPB-MSP(1-125) T46I) | HSQC perturbation of T46I mutant ([5]; molar ratio up to 1:6 (T46I/D3B)) | Kd for T46I mutant, statement in words ([5]; shift tracings highly unsaturated, up to 1:6 (T46I/D3B)) | Interaction (Yes/No) with VAPB-MSP(1-125) ([6]; 15N-VAPB-MSP(1-125), unlabeled NS5A fragment) | MSP residues whose HSQC peaks undergo gradual but significant shifts ([6]; molar ratio up to 1:4 (MSP/D3 peptide)) | Binding affinity to VAPB-MSP, in words ([6]; relative to D3 (and D3A, D3B)) | HSQC perturbation of VAPB-MSP(1-125) ([6]; words, 50 µM 15N-labelled protein)
NS5A-D3(359–447) (domain or fragment) | 4.5 µM | 6.2 µM | 6.8 µM | 2.4 µM | 4.5 µM | 5.2 µM | 4.6 µM | 1.7 µM | – | – | – | – | – | – | – | – | – | –
EphA4 LBD: 181-residue EphA4 ligand binding domain | – | – | – | – | – | – | – | – | reduced affinity to EphA4; also recorded: considerably reduces the binding affinity to EphA4 | only several MSP peaks were observed to shift slightly | started to trigger peak shift and disappearance of the MSP residues | – | – | – | – | – | – | –
NS5A-D3A(394–447) (domain or fragment) | 8 µM | 10.2 µM | 11.5 µM | 7.1 µM | 7.7 µM | 9.9 µM | 7.2 µM | 2.4 µM | – | – | – | – | – | – | – | – | – | –
CSCC[C@H](NC(=O)[C@H](CO)NC(=O)[C@H](CO)NC(=O)[C@H](Cc1ccc(O)cc1)NC(=O)[C@H](CO)NC(=O)[C@H](CCC(=O)O)NC(=O)[C@H](C)NC(=O)[C@H](CC(=O)O)NC(=O)[C@H](CO)NC(=O)CN)C(=O)N1CCC[C@H]1C(=O)N1CCC[C@H]1C(=O)N[C@@H](CC(C)C)C(=O)N[C@@H](CCC(=O)O)C(=O)NCC(=O)N[C@@H](CCC(=O)O)C(=O)N1CCC[C@H]1C(=O)NCC(=O)N[C@@H](CC(=O)O)C(=O)N1CCC[C@H]1C(=O)N[C@@H](CC(=O)O)C(=O)N[C@@H](CC(C)C)C(=O)N[C@@H](CO)C(=O)N[C@@H](CC(=O)O)C(=O)NCC(=O)N[C@@H](CO)C(=O)N[C@@H](Cc1c[nH]c2ccccc12)C(=O)N[C@@H](CO)C(=O)N[C@H](C(=O)N[C@H](C(=O)N[C@@H](CO)C(=O)N[C@@H](CCC(=O)O)C(=O)N[C@@H](CCC(=O)O)C(=O)N[C@@H](C)C(=O)N[C@@H](CO)C(=O)N[C@@H](CCC(=O)O)C(=O)N[C@@H](CC(=O)O)C(=O)N[C@H](C(=O)N[C@H](C(=O)O)C(C)C)C(C)C)C(C)C)[C@@H](C)O [D3B] | – | – | – | – | – | – | – | – | – | – | – | Yes/Weak | only a small set of T46I HSQC peaks were found to shift slightly of very small amplitude | impossible to fit out the CSD tracings to obtain Kd values | Yes | Gln6, Met89-Val90-Gln91, Asp116, Leu119 and Val122 | retains almost the same binding affinity and mode as the 89-residue D3 | almost the same shifting pattern and similar amplitude
